Data published in US20240043507A1 (RQ BIOTECHNOLOGY, published 2024).

B1: antibody 150 (antibody, V domains shown)
VH: QVQLVESGGGLIQPGGSLRLSCAASGVTVSSNYMSWVRQAPGKGLEWVSIIYSGGTTYYADSVKGRFTISRDSSMNTLYLQMNSLRAEDTAVYYCARDLMVYGIDVWGQGTTVTVSS
VL: EIVMTQSPSSLSASVGDRVTITCRASQGISSYLAWYQQKPGKAPKLLIYAASTLQSGVPSRFSGSGSGTDFTLTISSLQPEDFATYYCQQLDSYPPGYTFGQGTKVDIK
B2: antibody 58 (antibody, V domains shown)
VH: QVQLVESGGGLVQPGRSLRLSCAASGFTFDDYAMHWVRQPPGKGLEWVSGVSWNSGTIGYADSVKGRFIISRDNAKNSLYLQMNSLKAEDTALYYCAREVGGTFGVLISREGGLDYWGQGTLVTVSS
VL: SYELTQPPSVSVAPGQTARITCGGNTIGSKSVHWYQQRPGQAPVLVVYDDSDRPSGIPERFSGSNSGNTATLTISRVEAGDEADYYCQVWDSSSDRVVFGGGTKLTVL
B3: antibody 40 (antibody, V domains shown)
VH: QVQLVESGGGLVQPGGSLRLSCAVSGFTVSRNYMSWVRQAPGKGLEWVSLIYSGGSTFYADSVKGRFTISRDNSKNTLYLQMNSLRAEDTAVYYCARDLFHRSGYHDYWGQGTLVTVSS
VL: not shown
B4: antibody 253H165L (antibody, V domains shown)
VH: not shown
VL: DIVMTQSPGTLSLSPGERATLSCRASQSVRSSYLAWYQQKPGQAPRLLIYGASRRGTGIPDRFSGSGSGTDFTLTISRLEPEDFAVYYCQQYGSSPWTFGQGTKVEIK
B5: antibody 158 (antibody, V domains shown)
VH: EVQLLESGGDLIQPGGSLRLSCAASGVTVSSNYMSWVRQAPGKGLEWVSIIYPGGSTFYADSVKGRFTISRDNSKNTLYLQMHSLRAEDTAVYYCARDLGSGDMDVWGKGTTVTVSS
VL: DIVMTQSPSFLSASVGDRVTITCRASQGISSYLAWYQQKPGKAPKLLIQAASTLQSGVPSRFSGSGSGTEFTLTISSLQPEDFATYYCQQLNSYRYTFGQGTKVEIK
B6: antibody 88 (antibody, V domains shown)
VH: QLQLQESGPGLVKPSQTLSLTCTVSGGSISSGSYNWTWIRQPAGKGLEWIGRIYNSGSTNYNPSLKSRVTISVDTSKNQLSLKVRSVTAADTAVYYCARHCSGGTCYPKYYYGMDVWGQGTTVTVSS
VL: QSALTQPPSVSEAPRQRVTISCSGSSSNIGNNAVNWYQQFPGKAPKLLIYYDDLLPSGVSDRFSGSKSGTSASLAISGVQSEDEADYYCAAWDDSLNVVVFGGGTKLTVL
B7: antibody 132 (antibody, V domains shown)
VH: QVQLQQWGAGLLKPSETLSLTCAVYGGSFSGYYWSWIRQPPGKGLEWIGEINHSGSTNYNPSLKSRVTISVDTSKNQFSLKLSSVTAADTAVYYCARTDYYDSIDWGQGTLVTVSS
VL: QSVLTQEPSLTVSPGGTVTLTCGSSTGAVTSGHYPYWFQQKPGQVPRTLIYDTRNKHSWTPARFSGSLLGGKAALTLSGAQPEDEAEYYCLLSSSGARVFGGGTKLTVL
B8: antibody 384 (antibody, V domains shown)
VH: EVQLVESGGGLVKPGESLRLSCAASGFTFSDYYMTWIRQAPGKGLEWVSYIRSSGHTIYYADSVKGRFTISRDNAKNSLYLQMNSLRVEDTAVYYCARGGVLRFLEWPLNAFDIWGQGTMVTVSS
VL: DIQLTQSPSSLSASVGDRVTITCRASQGISNYLAWYQQKPGKVPKLLIYAASTLQSGVPSRFSGSGSGTDFTLTISSLQPEDVATYYCQKYNNALGTFGQGTKVEIK
B9: antibody 384 (antibody, V domains shown)
VH: B8 VH
VL: B8 VL

biological target: spike protein of SARS-CoV-2 strain Victoria (SARS-CoV-2/human/AUS/VIC01/2020) (SARS-CoV-2, UniProt P0DTC2 14-1273); experiment: cell-based or functional assay

Row | Binder | IC50 (FRNT, live virus neutralisation) [µg/mL]
1 | B1 | 0.012
2 | B2 | 0.041
3 | B3 | 0.026
4 | B4 | 0.003
5 | B5 | 0.031
6 | B6 | 0.033
7 | B7 | 0.048

biological target: spike protein of SARS-CoV-2 strain B.1.351 (SARS-CoV-2, UniProt P0DTC2 14-1273); experiment: cell-based or functional assay

Row | Binder | B.1.351/Victoria ratio (IC50) | IC50 (FRNT, live virus neutralisation) [µg/mL]
8 | B1 | 30 | 0.35
9 | B2 |  | 0.136
10 | B8 |  | > 10
11 | B3 |  | 0.738
12 | B4 |  | 0.013
13 | B5 |  | > 10
14 | B6 |  | > 10
15 | B7 |  | > 10

biological target: spike protein of SARS-CoV-2 strain B.1.1.7 (SARS-CoV-2, UniProt P0DTC2 14-1273); experiment: cell-based or functional assay

Row | Binder | IC50 (FRNT neutralisation) [ng/mL]
16 | B9 | 5

biological target: spike protein of SARS-CoV-2 strain B.1.351 (SARS-CoV-2, UniProt P0DTC2 14-1273); experiment: cell-based or functional assay; remark: another data set of the same source

Row | Binder | IC50 (FRNT neutralisation) [µg/mL]
17 | B9 | > 10

biological target: spike protein of SARS-CoV-2 strain P.1 (SARS-CoV-2, UniProt P0DTC2 14-1273); experiment: cell-based or functional assay

Row | Binder | IC50 (FRNT neutralisation) [µg/mL]
18 | B9 | > 10
